Experimental data: patent publication US20260266848A1, “COMPOSITIONS AND METHODS FOR DIAGNOSING AND TREATING DYSTONIA” (Duke University, priority 2023, published 2026)

B1: HNRNPC (protein, UniProt P07910 2-306, looked up)
Heterogeneous nuclear …: ASNVTNKTDPRSMNSRVFIGNLNTLVVKKSDVEAIFSKYGKIVGCSVHKGFAFVQYVNERNARAAVAGEDGRMIAGQVLDINLAAEPKVNRGKAGVKRSAAEMYGSVTEHPSPSPLLSSSFDLDYDFQRDYYDRMYSYPARVPPPPPIARAVVPSKRQRVSGNTSRRGKSGFNSKSGQRGSSKSGKLKGDDLQAIKKELTQIKQKVDSLLENLEKIEKEQSKQAVEMKNDKSEEEQSSSSVKKDETNVKMESEGGADDSAEEGDLLDDDDNEDRGDDQLELIKDDEKEAEEGEDDRDSANGEDDS
B2: PRPSAP2 (protein, UniProt O60256 1-369, looked up)
Phosphoribosyl pyrophosphate …: MFCVTPPELETKMNITKGGLVLFSANSNSSCMELSKKIAERLGVEMGKVQVYQEPNRETRVQIQESVRGKDVFIIQTVSKDVNTTIMELLIMVYACKTSCAKSIIGVIPYFPYSKQCKMRKRGSIVSKLLASMMCKAGLTHLITMDLHQKEIQGFFNIPVDNLRASPFLLQYIQEEIPDYRNAVIVAKSPASAKRAQSFAERLRLGIAVIHGEAQDAESDLVDGRHSPPMVRSVAAIHPSLEIPMLIPKEKPPITVVGDVGGRIAIIVDDIIDDVDSFLAAAETLKERGAYKIFVMATHGLLSSDAPRRIEESAIDEVVVTNTIPHEVQKLQCPKIKTVDISMILSEAIRRIHNGESMSYLFRNIGLDD
B3: GART (protein, UniProt P22102 2-1010, looked up)
Trifunctional purine …: AARVLIIGSGGREHTLAWKLAQSHHVKQVLVAPGNAGTACSEKISNTAISISDHTALAQFCKEKKIEFVVVGPEAPLAAGIVGNLRSAGVQCFGPTAEAAQLESSKRFAKEFMDRHGIPTAQWKAFTKPEEACSFILSADFPALVVKASGLAAGKGVIVAKSKEEACKAVQEIMQEKAFGAAGETIVIEELLDGEEVSCLCFTDGKTVAPMPPAQDHKRLLEGDGGPNTGGMGAYCPAPQVSNDLLLKIKDTVLQRTVDGMQQEGTPYTGILYAGIMLTKNGPKVLEFNCRFGDPECQVILPLLKSDLYEVIQSTLDGLLCTSLPVWLENHTALTVVMASKGYPGDYTKGVEITGFPEAQALGLEVFHAGTALKNGKVVTHGGRVLAVTAIRENLISALEEAKKGLAAIKFEGAIYRKDVGFRAIAFLQQPRSLTYKESGVDIAAGNMLVKKIQPLAKATSRSGCKVDLGGFAGLFDLKAAGFKDPLLASGTDGVGTKLKIAQLCNKHDTIGQDLVAMCVNDILAQGAEPLFFLDYFSCGKLDLSVTEAVVAGIAKACGKAGCALLGGETAEMPDMYPPGEYDLAGFAVGAMERDQKLPHLERITEGDVVVGIASSGLHSNGFSLVRKIVAKSSLQYSSPAPDGCGDQTLGDLLLTPTRIYSHSLLPVLRSGHVKAFAHITGGGLLENIPRVLPEKLGVDLDAQTWRIPRVFSWLQQEGHLSEEEMARTFNCGVGAVLVVSKEQTEQILRDIQQHKEEAWVIGSVVARAEGSPRVKVKNLIESMQINGSVLKNGSLTNHFSFEKKKARVAVLISGTGSNLQALIDSTREPNSSAQIDIVISNKAAVAGLDKAERAGIPTRVINHKLYKNRVEFDSAIDLVLEEFSIDIVCLAGFMRILSGPFVQKWNGKMLNIHPSLLPSFKGSNAHEQALETGVTVTGCTVHFVAEDVDAGQIILQEAVPVKRGDTVATLSERVKLAEHKIFPAALQLVASGTVQLGENGKICWVKEE
B4: ZYX (protein, UniProt Q15942 2-572, looked up)
Zyxin: AAPRPSPAISVSVSAPAFYAPQKKFGPVVAPKPKVNPFRPGDSEPPPAPGAQRAQMGRVGEIPPPPPEDFPLPPPPLAGDGDDAEGALGGAFPPPPPPIEESFPPAPLEEEIFPSPPPPPEEEGGPEAPIPPPPQPREKVSSIDLEIDSLSSLLDDMTKNDPFKARVSSGYVPPPVATPFSSKSSTKPAAGGTAPLPPWKSPSSSQPLPQVPAPAQSQTQFHVQPQPQPKPQVQLHVQSQTQPVSLANTQPRGPPASSPAPAPKFSPVTPKFTPVASKFSPGAPGGSGSQPNQKLGHPEALSAGTGSPQPPSFTYAQQREKPRVQEKQHPVPPPAQNQNQVRSPGAPGPLTLKEVEELEQLTQQLMQDMEHPQRQNVAVNELCGRCHQPLARAQPAVRALGQLFHIACFTCHQCAQQLQGQQFYSLEGAPYCEGCYTDTLEKCNTCGEPITDRMLRATGKAYHPHCFTCVVCARPLEGTSFIVDQANRPHCVPDYHKQYAPRCSVCSEPIMPEPGRDETVRVVALDKNFHMKCYKCEDCGKPLSIEADDNGCFPLDGHVLCRKCHTARAQT

What follows are molecules tested on DYT1 patient plasma derived EVs (assay: Plasma-derived EV proteomics (ExoQuick ULTRA, DIA LC/MS/MS), DYT1 vs Healthy Controls). Settings: Hs. Plasma EVs (DYT1/WT); significance of genotype difference.
Design: species or system human
Protocol: Data was obtained for extracellular vesicles using previously acquired samples. The ExoQuick® ULTRA EV Isolation System was used to fractionate and enrich EVs from plasma. Isolated plasma EV samples were then submitted to proteomic analysis by the Duke Proteomics and Metabolomics Core Facility (DPMCF). At the DPMCF, quantitative (LC/MS/MS) was performed on 500 ng of each sample, using an EvoSep One UPLC system coupled to a Thermo Orbitrap Astral high-resolution accurate mass tandem mass spectrometer (Thermo). Briefly, the sample was eluted directly from an Evotip which was subjected to a low organic wash and then subjected to an analytical separation using a 1.7 μm EvoSep 150 um ID×15 cm endurance (EveoSep) column running an SPD30 gradient from approximately 5 to 30% acetonitrile with 0.1% formic acid with a column temperature of 50 C. Data collection on the Orbitrap Astral mass spectrometer was performed in a data-independent acquisition (DIA) mode of acquisition with a r=240,000 (@m/z 200) full MS scan from m/z 380-980 with a target AGC value of 4e5 ions. Fixed DIA, windows of 4 m/z from m/z 380 to 980 DIA MS/MS scans were acquired in the Astral with a target AGC value of 5e4 and a max fill time of 6 ms. HCD collision energy setting of 27% was used for all MS2 scans.

Q: Which “-LogP” value does the source give for B1 here?
A: 2.933

Q: For B2, which “-LogP” value is on record?
A: 1.629

Q: Which “-LogP” value does the source give for B3 here?
A: 1.317

Q: B4 was tested. Which “-LogP” value did it give?
A: 2.225
